A protein production outcome set (Wang et al. 2014)

Assay: label from the status in PepcDB records

Sequence: MDRRDAMGLSGSGSYYIHRGLSGSGPPTFHGSPQQQQGLRHLPNQNSPFGSGSTGFGSPSLHGDPSLATAAGGAGALPHHIGVNMIAPPPPPSETPMKRKRGRPRKYGQDGSVSLALSSSSVSTITPNNSNKRGRGRPPGSGKKQRMASVGELMPSSSGMSFTPHVIAVSIGEDIASKVIAFSQQGPRAICVLSASGAVSTATLIQPSASPGAIKYEGRFEILALSTSYIVATDGSFRNRTGNLSVSLASPDGRVIGGAIGGPLIAASPVQVIVGSFIWAAPKIKSKKREEEASEVVQETDDHHVLDNNNNTISPVPQQQPNQNLIWSTGSRQMDMRHAHADIDLMRG
- protein production: failed

Sequence: MDRRRFIKGSMAMAAVCGTSGIASLFSQAAFAADSDIADGQTQRFDFSILQSMAHDLAQTAWRGAPRPLPDTLATMTPQAYNSIQYDAEKSLWHNVENRQLDAQFFHMGMGFRRRVRMFSVDPATHLAREIHFRPELFKYNDAGVDTKQLEGQSDLGFAGFRVFKAPELARRDVVSFLGASYFRAVDDTYQYGLSARGLAIDTYTDSKEEFPDFTAFWFDTVKPGATTFTVYALLDSASITGAYKFTIHCEKSQVIMDVENHLYARKDIKQLGIAPMTSMFSCGTNERRMCDTIHPQIHDSDRLSMWRGNGEWICRPLNNPQKLQFNAYTDNNPKGFGLLQLDRDFSHYQDIMGWYNKRPSLWVEPRNKWGKGTIGLMEIPTTGETLDNIVCFWQPEKAVKAGDEFAFQYRLYWSAQPPVHCPLARVMATRTGMGGFPEGWAPGEHYPEKWARRFAVDFVGGDLKAAAPKGIEPVITLSSGEAKQIEILYIEPIDGYRIQFDWYPTSDSTDPVDMRMYLRCQGDAISETWLYQYFPPAPDKRQYVDDRVMS
- protein production: failed

Sequence: MDRTHERVLQAMAENLGEGLPRAIPLLAEKAPGLLLEHGRSWTYAMPEKGALDEKTRTLILLGIALATGSEACVKAMAHRAKRLGLSKEALLETLKIARQAQANAVLGHAAPLLEVL
- protein production: not failed

Sequence: MDSDPLGVFPNSPKYHPYYSQTTEFGGVIDLGLSLRTIQHEIYHSSGQIMTCGKGYCSNEGYRRKWGYVKVTMDGLVVGRKVCVLDHGSYSTLAHQLEDMFGMQSVSGLRLFQMESEFCLVYRDEEGLWRNAGDVPWNEFIESVERLRITRRNDAVLPF
- protein production: failed

Sequence: MDSGKSRSLETTVKRVYRDLLLPKINTSKKMSTLTNSPSSLEGTPGIKKNSGEMQAEASAERVKLTKSIKEKQNNELEKVALKRKADSEEKLVGKKEAKIMELDNQLVTTVPLPHIPLKNIMDVEMKLVYVDEEDVSYEFAQPNMCLGLQATGQTATTMPPASPRDLTTLPQIDKWLQVALKDASSCYRQKKYAVAAGQFRTALELCSKGAALGKPFEAHAEDIASIASFIETKLVTCYLRMRKPDLALNHAHRSIVLNPAYFRNHLRQAAVFRCLERYSEAARSAMIADYMFWLCGGSEHSVSKLIKLYWQAMIEEAITRAEAFSVMYTPFATRIKPENIEKVKEVFMRTHPTYVDCIYTDTQGLHVLPQTADWSCFPPQQYLLTLGFKNKEDGKFLEKVSSRKLPTYTEHKTPFSPLTREDTVRHMETVGKRILPILDFIRSTQLNGNFHACSGVMEKLHYASLLSRLQRVKEQAQVINQAMAELATVPYLQDISQQEAELLQSLMADAMDTLEGKKSDKERVWNTIQKVKF
- protein production: failed

Sequence: MDSIQESDVLNAVKTKLPPCCLRIFRNKIILVGTYDLDKSTGYRSGSLDVFTMDLKLLCSNNTYGAILDLKLSPFDDTLICTAHSTGNIMLWRIRCTDKDDFQSNELDIHAIANLQLFEKDVLIASCHFSPLDCKKLLVTNTAGEAATIDIRTLSVQFTASAIAQAYSKLDKIDYEVQGATEKVIHVESGQFLKPHELECWTAEFGSLQPFQDVVFTGGDDSRIMAHDLRSKEFIWSNNRIHDAGVVSIKCSQPNFRNNKPTSIITGSYDDNIRSLDLRMMGESIFPGANVPTVNKLACDLGGGVWRFVESPIDQEQSHHNGSDRLLVCCMYNGAKVVTMNDNSDEYFQIQHYLKKGHDSMCYGGDWSNSLIATCSFYDNSLQTWIV
- protein production: failed

Sequence: MDSLVASYASSDEEEDLQPRREAFTVKSSEPSASSLFSAIPQPKELKSSEDGDLGSSSSRGKSSSFLSSLPPPKSSISRKKNPNPSSIPKRVVQIRLPVNPRPSNLDDEDDEEEEKARKKRKQMESASASHDSSVRSFLSAMPAPKSSQTLGALPSLGSGSGRRSNLETETPSIAFPQTDSGISDQQNQSYESFSHSNSETEQIVGVDNYYATGYDGGYETIPSGSSVGYDGSSYGGNTWNGGGFEAMTGLPEAVVAMDSGARRGRRGRNQMPEIVEVKQDELMKNRPRVDQVKSTGIAFGPAYQPVTSSSKGKVSKLHKRKHQITALFMDMKHKESELTERRSRGLLTKAETQAKYGW
- protein production: failed

Sequence: MDSMILGRYIPGDSIVHRLDPRSKLLAMMLLILIVFWANNPLTNLILFIATGIFIALSGVSLSFFIQGLKSMFFLIAFTTIFQLFFISNGNVLFEFSFVRITDYALQQAGIIFCRFVLIIFFSTLLTLTTMPLSLASAVEALLAPLKRVKVPVHEIGLMLSMSLRFVPTLMDDTTRIMNAQKARGVDFGEGSIVQKVKAMIPILIPLFATSLKRADSLAIAMEARGYQGGKGRSQYRQLKWTLKDTLTILVILVLGCCLFFLKS
- protein production: failed

Sequence: MDSMKLYDAIIGTVEKHIAPIAAKVGNQPHVRAMRDGFIVAMPFIIVGSFILIFAFPPFAEDTTFTFGRLWLDFATTHFDTIMMPFNMSMGIMTIFVSLGVAYSLAKAYKMDGITSAVLSLMCFLLVAAPAQDGSLAMKHMGGTGIFTAVMCAFFAVELYRFMKKHNITIRMPEQVPPAIARSFEVLLPVLAVFVTLYPLSIFVQTQYDMLIPDAVMAMFKPLISASNTLPAIIGALLMCQLLWFAGIHGAAIVVGLLSPIFLTNISGNIDAFVAGQPVPNIFTQPFWDFYIFIGGSGATLALVLLMSFSRSVHLKSIGRMSAVPGFFQINEPVIFGSPIVMNPTLFIPFVFAPVINATIAYFAVHLGFVGMGVATTPWTTPAIIGASWGSGWTFSPVLLVVGLLILDLLIYFPFFKMFEKQMLEQELPTTKETKQAEQPAGEGVTA
- protein production: failed

Sequence: MDSNTFVSTNIKKERNVDSVLSKGKPVSILLMGTDTGELGRNWVGRTDSMILVIINPKTKKTLLMSIPRDSMVSIPGYEYTFPQKINAAYEYPANGKGHPETSIKTVEKWLNVPIDFYGIVNMEALEQITNKAGGISVKSPLTFTFSEDTAHDYGNNLYTFTKGSTKYKYYKNGSTLTKTSNIMNGAAALAFTRMRYNDPLGDYGRTLRQRLVFEAIAKKATVLIPQIVNKKFLNSISKQGKTDLTFNDMVTLASNYRKALKNIKSDSVQGTDYEYSGISYQVVASKEKQRVTNKIRKFLGLKKAKSGPLYASKVTNGVVILEHHHHHH
- protein production: failed

Sequence: MDSRKALDGLAVTLMIILCLTWGLQQVALKATSAEIAPLMQIAIRSGISALLVGIMMAVRGERLSLAGGMWRPGLAVGFLFALEYLLVGEGLRHTTASHMVIFLYTAPVFAAIGLHLKLRSERLRPVQWFGIALAFGGIVVSFYGRGGHTASLSVASVIWGDVLGLAAGMAWGMTTVVIRTSRLAACSATQTLLFQLLGAFILLLPAAAVLDQTYFNPTRLGWACLIFQTLIVSFASFLVWFWLLRHYVASRLGVLSFMTPLFGVALGAWLLNEPLERGFLAGALLVLTGIILVSGHGWLRQLGNGAGAAVQEQAREPDLP
- protein production: failed

Sequence: MDSVVSDVSDLVEPDEELKAWQTDRTRAPIATKIVVAGGFGAGKTTLVTAVSEITPLQTEALMTQASEDTDDLTGTPDKLTTTVAMDFGRITLDDDLVLYLFGTPGQQRFWFMWDDLVRGAIGAVVLADTRRLSDCFPALDYFESCGLPYVVAVNHFDGSEKFEPEDVREALTVPAHIPVMIMDARRRISVIETLLALVGHALEVSPELEHHHHHH
- protein production: not failed

Sequence: MDTELMKLDVHVTAWSRTPSSSGFLNSVMISRDRDFEEFIINDRDGSVTSLGSYQNPSRGPDPLIFLDFRNFEPNYVYQLLLSQFHDHVLSEHIADQIGYTFGTCNSPTSTTDLDQESEEEE
- protein production: failed

Sequence: MDTLEPTAVDTHVSAEQILRDVYKKGQKARGSTNIDILDLEELREYQRRKRTEYEGYLKRNRLDMGQWIRYAQFEIEQHDMRRARSIFERALLVDSSFIPLWIRYIDAELKVKCINHARNLMNRAISTLPRVDKLWYKYLIVEESLNNVEIVRSLYTKWCSLEPGVNAWNSFVDFEIRQKNWNGVREIYSKYVMAHPQMQTWLKWVRFENRHGNTEFTRSVYSLAIDTVANLQNLQIWSDMEVAKLVNSFAHWEAAQQEYERSSALYQIAIEKWPSNQLLKAGLLDFEKQFGDINSIEETISYKRKMEYETILSNNAYDYDTWWLYLDLISESFPKQIMQTFEKAIVDSRPKELSKNVQWKRYIYLWMRYICYVELELENSLLEEELFQRLIDDIIPHKHFTFSKIWLMYAKFLIRHDDVPKARKILGKAIGLCPKAKTFKGYIELEVKLKEFDRVRKIYEKFIEFQPSDLQIWSQYGELEENLGDWDRVRGIYTIALDENSDFLTKEAKIVLLQKYITFETESQEFEKARKLYRRYLELNQYSPQSWIEFAMYQTSTPTEQQLLDLAKLQSENVDEDIEFEITDENKLEARKVFEEAIVFFKEKDDKQGRLSILEALKDYEETYGTELDQETVKKRFPKVIKKVRLQNGVEEEFVDYIFPDDIDDDKPKPSKFLELAKKWKQEQAL
- protein production: failed

Sequence: MDTLQFQKNPETAAKMSAYMKHQFVFAGIPAPERQALSKQLLKESHTWPKEKLCQEIEAYYQKTEREYQYVAIDLALQNVQRFSLEEVVAFKAYVPQKAWWDSVDAWRKFFGSWVALHLTELPTIFALFYGAENFWNRRVALNLQLMLKEKTNQDLLKKAIIYDRTTEEFFIQKAIGWSLRQYSKTNPQWVEELMKELVLSPLAQREGSKYLAKASE
- protein production: not failed

Sequence: MDTMRSLRFISAEALVSHPQVARQSLDSVAHNLYPLLFKASYLLEQAEVTRAVLGRWPLEEFRLGALLGPGADHPQDLRDRTCRACLEALVRGLADHVLQDRSRRRLRVADLTGIRDVQVQRCPCGRALGRWGRTQLLARTCCELQAEPLAAGRPVEVLADLFVTEGNFEAVVQALRPAGPAPLRVHCPSFRADSLSPSQLLHVLRLAGPGALRKLEVVHNVRLHAGHVQQLLAQVGFPRLASLTLPTKAFDAPPTYASTPDGEDPLLASIARELSKMAQLTELSVAFSTLTGKIPTLLGPLQTPLRVLDLANCALNHTDMAFLADCAHAAHLEVLDLSGHNLVSLYPSTFFRLLSQASRTLRILTLEECGIVDSHVGMLILGLSPCHRLRQLKFLGNPLSARALRRLFTALCELPELRCIEFPVPKDCYPEGAAYPQDELAMSKFNQQKYDEIAEELRAVLLRADREDIQVSTPLFGSFDPDIQETSNELGAFLLQAFKTALENFSRALKQIE
- protein production: failed

Sequence: MDTPILIPTDMNRIPFFYLLQISDPLFPIGGFTQSYGLETYVQKGIVHDAETSKKYLESYLLNSFLYNDLLAVRLSWEYTQKGNLNKVLELSEVFSASKAPRELRAANEKLGRRFIKILEFVLGENEMFCEMYEKVGRGSVEVSYPVMYGFCTNLLNIGKKEALSAVTYSAASSIINNCAKLVPISQNEGQKILFNAHGIFRRLLERVEELDEEYLGSCCFGFDLRAMQHERLYTRLYIS
- protein production: failed

Sequence: MDTPLGSVLYITLGCAKNEVDTDRMRSLLTAAGYEEAFDPQDADIAIVNTCSFLASATSESIETTLELANEVQDGVRSCPIVMCGCVPSRYGDDLPDELPEVAAFVKADEEDGIVAVIDGVLGVEREIAAYIPQVKRTVEGAVAYVKISDGCNRFCSFCMIPYIRGRYHSRNSESIISEVRDLVAGGVREIVLIGQDTGIWGTDFADEDVADGSPRNLAQLLRAVAEAVRPHNVWVRVLYLQPEGMTDELIDTIRDTPEVLPYIDIPVQHCDARILKAMRRSGSRQELEDLFRDLRERIPGIVIRSTAMVGFPTETDDEFRDLIDFMDTVGFDYTSVFAYSREEGSLAAKMEGQVDEEVKLERAQEAMDLAESLGFAATAAHVGERAQVIVDGIEETEDGAELIGHAWFQAPDSDGAVHLDASEASVGDILTVEFTDSFCYELIGHVVE
- protein production: failed
